{"source": "patent US20220135940A1", "about": "“METHOD FOR PRODUCING KIDNEY STRUCTURE HAVING DENDRITICALLY BRANCHED COLLECTING DUCT FROM PLURIPOTENT STEM CELLS” (NATIONAL UNIVERSITY CORPORATION KUMAMOTO UNIVERSITY, priority 2018, published 2022)", "molecules": {"B1": {"name": "activin A: homodimer of two inhibin BA chains (protein, UniProt P08476 311-426, looked up)", "Inhibin beta A chain": "GLECDGKVNICCKKQFFVSFKDIGWNDWIIAPSGYHANYCEGECPSHIAGTSGSSLSFHSTVINHYRMRGHSPFANLKSCCVPTKLRPMSMLYYDDGQNIIKKDIQNMIVEECGCS", "modifications": "Inhibin beta A chain", "notes": "homodimer of two inhibin BA chains"}}, "format_in_all_cases": "cell-based", "key": {"mouse ES cells [1]": {"tested_on": "mouse ES cells", "test": "Induction of CXCR4+/KIT+ WD progenitors from mouse ES cells, FACS at day 6.25", "details": "Bmp4 in procedure 2, activin A in procedure 1", "method": "(§1) ES cells were differentiated in a serum-free medium as follows. The ES cells were dissociated with Accutase™ (ESGRO) and cultured in a serum-free mouse ES cell differentiation medium. The harvested cells were aggregated in a 96-well U-bottom low cell binding plate at 1,000 cells per aggregate to form embryonic bodies (EBs). After 48 hours (day 2), the EBs were dissociated with Accutase and re-aggregated in a serum-free differentiation medium supplemented with 10 ng/mL human activin A (R & D) (Procedure 1). After 24 hours (day 3), the medium was replaced with a medium containing 0.3 ng/mL human Bmp4 (R & D) and 10 μM CHIR 99021 (Procedure 2). After 36 hours (day 4.5), the medium was replaced with procedure 3 medium containing 0.1 μM retinoic acid, 100 ng/mL human Fgf9 and 10 μM SB431542 (Wako). On day 5.5 (24 hours later), the medium was replaced with a medium containing 0.1 μM retinoic acid, 100 ng/mL human Fgf9 and 5 μM CHIR99021 (“Procedure 4 medium”). The differentiation factors of the Hoxb7-GFP ES cell line are shown in the table below together with the differentiation factors of the Osr1-GFP ES cell line.\nOn day 6.25, the induced spheroids were harvested and dissociated by incubating in 0.25% trypsin/EDTA at 37° C. for 6 minutes. After blocking in normal mouse serum, cell surface marker (CXCR4/KIT) staining was carried out in a buffer containing 1% BSA, 1×HBSS and 0.035% NaHCO3. The FACS-sorted 3,000 Hoxb7-GFP+/CXCR4+/KIT+ cells were aggregated in a V-bottom 96-well low cell binding plate to form spheroids. Subsequently, these were cultured using the above E8.75 embryonic tissue culture conditions.\n(§2) Cell aggregates induced from embryonic tissue or mouse ES cells/human iPS cells were dissociated and blocked with normal mouse serum and then cell surface marker staining was carried out in a buffer containing 1% BSA, 1×HBSS and 0.035% NaHCO3. Data analysis was performed with FlowJo software (Treestar)."}, "human iPS cells [2]": {"tested_on": "human iPS cells", "test": "Induction of CXCR4+/KIT+ WD progenitors from human iPS cells, FACS at day 6.25", "details": "epiblast patterning stage (day 0 to day 1), combination of activin A and Bmp4", "method": "Cells were reaggregated at 10,000 cells per aggregate in a V-bottom 96-well low cell binding plate using a medium containing 10 μM Y27632 and 10 ng/mL human activin A and 1 ng/mL human Bmp4 (“Procedure 1 medium”), to form embryonic bodies (EBs). After 24 hours (day 1), the aggregates were transferred to a U-bottom 96-well low cell binding plate containing a medium containing 10 μM CHIR and 1 ng/mL human Bmp4 (“Procedure 2 medium”). After 36 hours (day 2.5), the medium was replaced with a medium containing 0.1 μM retinoic acid, 100 ng/mL human Fgf9, 100 nM LDN193189 and 100 μM SB431542 (“Procedure 3 medium”). On day 4.5, the medium was replaced with a medium containing 0.1 μM retinoic acid, 5 μM CHIR, 100 ng/mL human Fgf9 and 30 nM LDN193189 (“Procedure 4 medium”).\nOn day 6.25, the induced spheroids were harvested and dissociated by incubating in 0.25% trypsin/EDTA for 6 minutes at 37° C. After blocking in normal mouse serum, cell surface marker (CXCR4/KIT) staining was carried out in a buffer containing 1% BSA, 1×HBSS and 0.035% NaHCO3. The FACS-sorted 5,000 of CXCR4+/KIT+ cells were seeded in a V-bottom 96-well low cell binding plate and precipitated by the centrifuge (210 G for 4 minutes). The supernatant was replaced with a medium containing 10 μM Y27632, 0.1 μM retinoic acid, 1 μM CHIR, 5 ng/mL human Fgf9, 100 ng/mL human Fgf1, 10 nM LDN193189 and 10% growth factor reduced Matrigel (“Procedure 5 medium”). On day 8.5, the spheroids were transferred to a medium containing 10 μM Y27632, 0.1 μM retinoic acid, 3 μM CHIR, 5 ng/mL human Fgf9, 1 ng/mL human GDNF, 100 ng/mL human Fgf1, 10 nM LDN193189 and 10% growth factor reduced Matrigel (“Procedure 6 medium”). On day 10.5, the spheroids were transferred to a medium containing 10 μM Y27632, 0.1 μM retinoic acid, 3 μM CHIR, 2 ng/mL human GDNF, 100 ng/mL human Fgf1, 10 nM LDN193189 and 10% growth factor reduce Matrigel (“Procedure 7 medium”).\nas §2\nNext, the optimal time window for inducing anterior or posterior intermediate mesoderm from the nascent mesoderm was examined. Since the nascent mesoderm population is maintained by the high concentrations of Wnt agonists, the incubation period with Wnt agonists was varied and the subsequent differentiation was applied with conditions specific to the UB or metanephric nephron progenitor cell lineage. The induction efficiency of CXCR4+/KIT+ WD progenitor or ITGA8+/PDGFRA− nephron progenitor cell fraction was examined at day 6.25 or day 12, respectively. […]"}, "mouse ES cells [3]": {"tested_on": "mouse ES cells", "test": "AIM induction from mouse ES cells (procedure 3), AIM marker expression", "details": "Fgf9 at high concentrations", "method": "as §1\nHarvested spheroids or cells were homogenized, and total RNA was isolated using RNeasy Plus Micro Kit (Qiagen), and then a reverse-transcribed with random primers and Superscript III (Invitrogen). Quantitative PCR was carried out using Real-Time PCR system (Takara Bio) and Thunderbird SYBR qPCR Mix (Toyobo). With normalized by β-actin gene, relative mRNA expression levels were analyzed.\nNext, signaling for the AIM differentiation procedure was hypothesized, which is partially different from that for PIM, based on the gene expression profile minimally conserved, between anterior intermediate mesoderm (AIM) (Osr1+, Pax2+, Pax8+, Emx2+, Lhx1+, Gata3+) and posterior intermediate mesoderm (PIM) (Osr1+, Wtl+, Hoxll+) (Procedure 3 in FIG. 2)."}, "human iPS cells [4]": {"tested_on": "human iPS cells", "test": "Induction of ITGA8+/PDGFRA- nephron progenitor cells from human iPS cells, FACS at day 12", "details": "epiblast patterning stage, absence of Bmp4", "method": "The previously reported protocol (Taguchi 2014 above) was modified and applied. In the presence of 10 μM Y27632 and 1 ng/mL human activin A, cells were reaggregated at 10,000 cells per aggregate in a V-bottom 96-well low cell binding plate, to form embryonic bodies (EBs). After 24 hours (day 1), the aggregates were transferred to a U-bottom 96-well low cell binding plate containing the mesoderm-inducing medium containing 10 μM CHIR. Subsequently, half of the culture medium was replaced with a fresh medium every other day (day 3 and day 5). On day 7, the medium was replaced with ABC3R medium containing 10 ng/mL human activin A, 3 ng/mL human Bmp4, 3 μM CHIR and 0.1 μM retinoic acid. On day 9, the medium was replaced with ClF medium containing 1 μM CHIR and 5 ng/mL human Fgf9.\nas §2\nNext, the optimal time window for inducing anterior or posterior intermediate mesoderm from the nascent mesoderm was examined. […]"}}}
{"molecule": "B1", "values": [{"measurement": "UB induction versus MM induction, concentration dependence", "setting": "mouse ES cells [1]", "value": "higher concentration of activin A was preferred for UB induction"}, {"measurement": "concentration at which WD progenitor induction peaked", "setting": "human iPS cells [2]", "value": 10, "unit": "ng/mL"}, {"measurement": "induction of AIM markers", "setting": "mouse ES cells [3]", "value": "inhibitory to the induction of AIM markers"}, {"measurement": "concentration at which induction of nephron progenitor cells was maximized", "setting": "human iPS cells [4]", "value": 1, "unit": "ng/mL"}]}
